# From FireProtDB (doi:10.1021/acs.biochem.5b01204)
# B1: Sliding clamp, P04525 (parent)
# chain: MKLSKDTTALLKNFATINSGIMLKSGQFIMTRAVNGTTYAEANISDVIDFDVAIYDLNGFLGILSLVNDDAEISQSEDGNIKIADARSTIFWPAADPSTVVAPNKPIPFPVASAVTEIKAEDLQQLLRVSRGLQIDTIAITVKEGKIVINGFNKVEDSALTRVKYSLTLGDYDGENTFNFIINMANMKMQPGNYKLLLWAKGKQGAAKFEGEHANYVVALEADSTHDF
# Variants of: B1
# Details: Enterobacteria phage T4; pH 7.4; 25 °C; Urea; CD; Sodium Phosphate Buffer; transition: 3; structure 1CZD; whole UniProt chain shown
row,Variant,denaturant midpoint (higher = more stable)
1,MKLSKDTTALLKNFATINSGIMLKSGQFIMTRAVNGTTYAEANISDVIDFDVAIYDLNGFLGILSLVNDDAEISQSEDGNIKIADARSTIFWPAADPSTVVAPNKPIPFPVASAVTEIKAEDLQQLLRVSRGLQIDTIAITVKEGKIVINGFNKVEDSALTRVKYSLTLGDYDGENTFNFIINMANMKMQPGNYKLLLFAKGKQGAAKFEGEHANYVVALEADSTHDF [W199F],1.9 M

# Same assay, conditions: Enterobacteria phage T4; pH 7.4; 25 °C; Urea; CD; Sodium Phosphate Buffer; structure 1CZD; whole UniProt chain shown
row,Variant,denaturant midpoint (higher = more stable)
1,MKLSKDTTALLKNFATINSGIMLKSGQFIMTRAVNGTTYAEANISDVIDFDVAIYDLNGFLGILSLVNDDAEISQSEDGNIKIADARSTIFFPAADPSTVVAPNKPIPFPVASAVTEIKAEDLQQLLRVSRGLQIDTIAITVKEGKIVINGFNKVEDSALTRVKYSLTLGDYDGENTFNFIINMANMKMQPGNYKLLLWAKGKQGAAKFEGEHANYVVALEADSTHDF [W92F],2 M
